Results on 30 molecules are retold here after paper PMC7278562, “A high‐affinity, bivalent PDZ domain inhibitor complexes PICK1 to alleviate neuropathic pain” (EMBO Molecular Medicine, 2020).

By Ki is commonly meant the dissociation constant of the complex between target and ligand, obtained from inhibition or displacement. As a reminder, the share remaining is the share of the starting amount still present when the sample was taken. What is called Kd is the constant that tells how readily two partners part at equilibrium.

Ends that are not written are not given here. Peptide text beside a SMILES is read from it. * marks the point of attachment. 3‑phenylpropyl = c1ccc(CCC*)cc1; Cyclohexylmethyl = C1CCC(C*)CC1; Bn = c1ccc(C*)cc1 A value given as a limit tells only on which side of the number the result lay.

Data set [1] addresses T1, PICK1 (Rattus norvegicus, UniProt Q9EP80).
T1 construct: GST (inferred from pET41 and Glutathione-Sepharose capture) (cleaved yes); made in house; host or cells: Escherichia coli BL21-DE3-pLysS
The note with it: best-known binder of the PICK1 PDZ domain; ref Madsen et al, 2005; cited from earlier work. The text has this:
To this end, we took advantage of a fluorescence polarization (FP) competition assay using a fluorescent tracer peptide corresponding to the C‐terminal 11 residues of the DAT (OrG‐C11) (Fig EV1A).

Data set [2] concerns mechanical allodynia in SNI mice. Put plainly: Spared nerve injury (SNI) model, von Frey paw withdrawal threshold. It counts as in vivo.
The target in data set [3] is T1, PICK1. The data set can be described thus: FP saturation binding. The note with it: Appendix Fig S2, n = 3. The protocol:
Protein expression was induced with 1 mM IPTG and grown overnight at 20°C. […] 1 l culture at pH 7.4. Suspended pellet was frozen at −80°C. The bacterial suspension was thawed and cleared by centrifugation (F20 rotor, 36,000 × g for 30 min at 4°C). The supernatant was collected and incubated with Glutathione‐Sepharose 4B beads (GE Healthcare) for 2 h at 4°C under gentle rotation. […] Washed beads were transferred to a PD10 gravity column and were washed additionally three times. Bead solution was incubated with thrombin overnight at 4°C under gentle rotation.
The data were plotted using GraphPad Prism 8.3 and fitted to either a sigmoidal dose response for saturation experiments or One site competition for competition experiments. Kis were automatically calculated using the Cheng–Prusoff equation.

For data set [4] the following is noted: 20 μM i.t.; for presence in spinal cord after i.t. injection: naïve mice, 1 h after injection, fluorescence. The protocol: All spinal cords were isolated by hydraulic extrusion and post‐fixed in PFA 4% for 8 h. Spinal cords were subsequently cryoprotected in 30% sucrose, embedded in Tissue‐Tek® OCT, and sliced at 20 μm thickness by Cryostat Leica CM3050 S.
Epifluorescence microscopy was performed using a Zeiss axioscan.Z1, with a plan‐apochromat 10×/0.45 objective (Carl Zeiss). […] All channels were imaged covering a total of around 6 μm of the 20‐μm‐thick spinal cord slices.

The test system of data set [5] is hippocampal neurons. Put plainly: Membrane permeability in dissociated hippocampal neurons (confocal, DiO membrane dye). The note with it: 21 DIV neurons, 1 h, 37°C, 5 μM TMR-labeled peptide (legend: TMR-C5 20 μM), confocal fluorescence.
A short description of data set [6]: Plasma stability. It is filed as in vitro ADME. The note with it: human plasma (3H biomedical) with 2% DMSO, 50 μM peptide, 37°C, GnHCl/TCA-acetone work-up, C8 RP-HPLC (UPLC), normalized to T = 0, mean, n ≥ 3, read-out: peptide remaining after incubation with human plasma. The protocol:
The peptides were dissolved to a final concentration of 50 μM in human plasma (3H biomedical, Uppsala, Sweden) containing 2% DMSO and incubated at 37°C. Aliquots (45 μl) were added directly to 26 mg guanidine hydrochloride (GnHCl), vortexed, and incubated for 2 min. 90 μl of 10% trichloroacetic acid (TCA) in acetone was then added, and the suspension was incubated at 5°C for 24 h.
The suspension was centrifuged at 18,000 g for 5 min. The supernatants were quantified by analytical C8 RP‐HPLC and normalized to the compound concentration at T = 0. Ligand recovery was > 82%.

Data set [7] deals with PICK1 (protein interacting with C kinase 1), purified recombinant rat (rat) (UniProt Q9EP80). The data set can be described thus: fluorescence polarisation; competition (Ki with SEM interval); tracer and conditions not stated. (Polarisation of emitted light reports the rotation of a fluorescent probe.)
The target of data set [8] is PICK1 (protein interacting with C kinase) (rat) (UniProt Q9EP80). The data set can be described thus: fluorescence polarisation; competition; fixed PICK1 and a fluorescent tracer (not named for this series) against increasing unlabeled peptide; 20 min on ice; Ki by Cheng-Prusoff.
For data set [9], the target named is Org-GluA2 C11, Oregon Green labelled C-terminal 11 residues of GluA2. Put plainly: fluorescence polarisation; saturation; fluorescent peptide fixed at 20 nM, increasing PICK1; 0.01% Triton X-100 (PICK1 a dimer); KD from a log dose-response fit.
Data set [10] concerns the target OrG-C11, Oregon Green labelled C-terminal 11 residues of the dopamine transporter. Described as above.
The target in data set [11] is DAT C13 C-terminal 13 residues (Homo sapiens) (UniProt Q01959). The note with it: cited from earlier work.
Data set [12] has as its target PICK1 (protein interacting with C kinase) (rat) (UniProt Q9EP80). The data set can be described thus: SEC; analytical SEC of purified PICK1 (40 uM in the titration) alone or incubated with peptide; absorbance at 280 nm and, for the TMR peptide, 544/546 nm. For orientation: Size exclusion chromatography separates by hydrodynamic size, large species first.
For data set [13] the target is unchanged. Put plainly: fluorescence polarisation.
Data set [14] has the same target. Put plainly: fluorescence polarisation. The source holds these as a separate data set.

In the case of `CC(C)C[C@H](NC(=O)[C@H](Cc1c[nH]c2ccccc12)NC(=O)[C@H](Cc1c[nH]cn1)NC(=O)[C@H](CCCNC(=N)N)NC(=O)[C@H](CC(C)C)NC(=O)[C@@H](NC(=O)[C@H](Cc1ccccc1)NC(=O)[C@H](CCC(N)=O)NC(=O)[C@H](CCCNC(=N)N)NC(=O)[C@@H](NC(=O)[C@@H](N)CCC(=O)O)C(C)C)[C@@H](C)O)C(=O)N[C@@H](CCCCN)C(=O)N[C@H](C(=O)O)C(C)C` [DAT C13] (H-EVRQFTLRHWLKV-OH), the Ki in [1] was 1 µM.
Take `CCOC(=O)NC(=O)/C(C#N)=C/c1ccc(Cl)c(Cl)c1` [FSC231]: the “effect on PWT / ipsilateral paw hypersensitivity” value in [2] (i.t. 20 μM, initiation stage (2 days after injury), n = 8 mice/group) is “did not significantly change PWT”.
With `CC(C)C[C@H](NC(=O)[C@H](Cc1c[nH]c2ccccc12)NC(=O)[C@H](Cc1c[nH]cn1)NC(=O)CCOCCOCCN(CCOCCOCCC(=O)N[C@@H](Cc1c[nH]cn1)C(=O)N[C@@H](Cc1c[nH]c2ccccc12)C(=O)N[C@@H](CC(C)C)C(=O)N[C@@H](CCCCN)C(=O)N[C@H](C(=O)O)C(C)C)C(=O)[C@H](CCCNC(=N)N)NC(=O)[C@H](CCCNC(=N)N)NC(=O)[C@H](CCCNC(=N)N)NC(=O)[C@H](CCC(N)=O)NC(=O)[C@H](CCCNC(=N)N)NC(=O)[C@H](CCCNC(=N)N)NC(=O)[C@H](CCCCN)NC(=O)[C@H](CCCCN)NC(=O)[C@H](CCCNC(=N)N)NC(=O)CNC(=O)[C@H](Cc1ccc(O)cc1)NC(=O)c1ccc2c(c1)C(=O)OC21c2ccc(N(C)C)cc2Oc2cc(N(C)C)ccc21)C(=O)N[C@@H](CCCCN)C(=O)N[C@H](C(=O)O)C(C)C` [TMR-Tat-P4-(C5)2], in data set [3], the “affinity from saturation binding curves” value was “low nanomolar affinity”. In addition, the “time of maximal accumulation in cells” value in [4] (SNI mice, time points 0, 30, 60, 120 min) is listed as 60 min. Besides, in data set [4] (SNI mice, NeuN and GFAP staining), the “cell type of peptide signal in gray matter” value was “exclusively confined toward neurons”. The “presence in spinal cord after i.t. injection” value in data set [4] is “clearly visible in both the ventral and dorsal parts of the spinal cord”. Moreover, the “membrane penetration / labeling of neurons” value in data set [5] was “labeled neurons”.
On to `CC(C)C[C@H](NC(=O)[C@H](Cc1c[nH]c2ccccc12)NC(=O)[C@H](Cc1cnc[nH]1)NC(=O)[C@H](CCCNC(=N)N)NC(=O)[C@H](CCCNC(=N)N)NC(=O)[C@H](CCCNC(=N)N)NC(=O)[C@H](CCC(N)=O)NC(=O)[C@H](CCCNC(=N)N)NC(=O)[C@H](CCCNC(=N)N)NC(=O)[C@H](CCCCN)NC(=O)[C@H](CCCCN)NC(=O)[C@H](CCCNC(=N)N)NC(=O)CNC(=O)[C@@H](N)Cc1ccc(O)cc1)C(=O)N[C@@H](CCCCN)C(=O)N[C@H](C(=O)O)C(C)C` [Tat-C5], for which the share remaining at 24 h, 50 μM in [6] was about 5%.
Consider `NCC1(CC(=O)O)CCCCC1` [gabapentin], for which the “efficacy 14 days after nerve injury” value in data set [2] (i.p. 30 mg/kg, chronic phase, n = 4 per gender) is recorded as “comparable efficacy”. Further, the ipsilateral paw threshold entry in data set [2] (i.p. 30 mg/kg, initiation stage (2 days after injury), at 1, 2, 3 h, n = 4 mice) is recorded as “full recovery”.
In the case of DAT C3 peptide, N-acetylated, R = COCH3, the Ki in data set [7] came to 3.8 µM.
Still for that read-out and setting: as for DAT C3 peptide, N-alkylated, R = CH3, the figure is 9.38 µM; as for “DAT C3 peptide, N-alkylated, R drawn (cyclohexylmethyl)”, 6.82 µM; as for DAT C3 peptide, no modification, 4.1 µM.
In data set [8], P4‐(C5)2 (peptide) returned a Ki of 0.098 µM.
Same read-out and setting: the figure for P28‐(C5)2 (peptide) is 0.593 µM.
In data set [8], PEG0‐(HWLKV)2 (peptide) had a fold increase in affinity over C5 of over 10 fold.
The same measure, in the same setting: as for PEG8‐(HWLKV)2 (peptide), the figure is over 10 fold; as for PEG12‐(HWLKV)2 (peptide), over 10 fold.
Regarding “PICK1 (protein interacting with C kinase 1), purified recombinant rat (from UniProt Q9EP80 1-416) (natural protein)”, the values for the Kd in data set [9] and in [10] were 1.53 µM and 0.44 µM, respectively.
In the case of PICK1 PDZ (from UniProt Q9NRD5), in data set [11], the Ki was 1 µM.
In the case of TMR‐Ahx‐YGRKKRRQRRR‐HWLKV [TMR-Tat-C5], the “presence in spinal cord after i.t. injection” value in data set [4] is “clearly visible in both the ventral and dorsal parts of the spinal cord”.
The molecule Tat‐P4‐(C5)2 (peptide) gave a stoichiometry N (Tat‐P4‐(C5)2 per PICK1) in data set [12] of 0.25. Also, in data set [13], the Ki came to 0.0062 µM and the fold affinity gain over C5 was over 300 fold. This molecule also showed a Ki in data set [14] of 0.0017 µM.

B1: DAT C4 peptide, N-alkylated, R drawn (2-naphthylethyl) (peptide)
peptide: {2‑(naphthyl)ethyl}-WLKV
modifications: not fully specified
Take B1: the Ki in data set [7] came to 48 µM.

B2: DAT C4 peptide, no modification (peptide)
peptide: WLKV
On to B2, for which the Ki in data set [7] is 5.69 µM.

B3: DAT C4 peptide, N-alkylated, R drawn (2-phenylethyl) (peptide)
peptide: {2‑phenylethyl}-WLKV
On to B3, for which, in data set [7], the inhibitory constant (Ki) came out at 26.2 µM.

B4: DAT C4 peptide, N-alkylated, R drawn (cyclohexylmethyl) (peptide)
peptide: Cyclohexylmethyl-WLKV
As to B4, in data set [7], the Ki was found to be 15.1 µM.

B5: DAT C4 peptide, N-alkylated, R = (CH2)2CH3 (peptide)
peptide: {n‑propyl}-WLKV
B5: the Ki in [7] turned out to be 46.6 µM.

B6: DAT C4 peptide, N-alkylated, R = CH3 (peptide)
peptide: methyl-WLKV
Turning to B6, the Ki in [7] came out at 18.8 µM.

B7: DAT C4 peptide, N-acetylated, R = COCH3 (peptide)
peptide: Ac-WLKV
Turning to B7, the inhibitory constant (Ki) in [7] was found to be 3.49 µM.

B8: DAT C4 peptide, N-alkylated, R drawn (benzyl) (peptide)
peptide: Bn-WLKV
Regarding B8, in [7], the Ki worked out at 24.5 µM.

B9: DAT C4 peptide, N-alkylated, R drawn (2-cyclohexylethyl) (peptide)
peptide: {2‑cyclohexylethyl}-WLKV
B9: the Ki in data set [7] was determined as 31.8 µM.

B10: DAT C4 peptide, N-alkylated, R = (CH2)3CH3 (peptide)
peptide: {n‑butyl}-WLKV
In the case of B10, in data set [7], the Ki is 45.3 µM.

B11: DAT C4 peptide, N-alkylated, R drawn (3-phenylpropyl) (peptide)
peptide: {3‑phenylpropyl}-WLKV
B11: the Ki in data set [7] was found to be 38.6 µM.

B12: DAT C4 peptide, N-alkylated, R = CH2CH3 (peptide)
peptide: Et-WLKV
Take B12: the Ki in data set [7] worked out at 30 µM.
